Substrate in the data set: Nc1ncnc2c1ncn2[C@@H]1O[C@H](COP(=O)(O)OP(=O)(O)OP(=O)(O)O)[C@@H](O)[C@H]1O
The data set can be described thus: purified protein. In kind it is biochemical, Saccharomyces cerevisiae. To be noted: 3′-(dT)40 partial duplex DNA, monomer condition (10 nM Pif1 then wash), 5 mM MgCl2, 60 mM KCl, pH 7.5, 22 °C.

B1: Pif1 (Saccharomyces cerevisiae S288C) (protein)
chain: RSNNFIQAQLKHPSILSKEDLDLLSDSDDWEEPDCIQLETEKQEKKIITDIHKEDPVDKKPMRDKNVMNFINKDSPLSWNDMFKPSIIQPPQLISENSFDQSSQKKSRSTGFKNPLRPALKKESSFDELQNNSISQERSLEMINENEKKKMQFGEKIAVLTQRPSFTELQNDQDDSNLNPHNGVKVKIPICLSKEQESIIKLAENGHNIFYTGSAGTGKSILLREMIKVLKGIYGRENVAVTASTGLAACNIGGITIHSFAGIGLGKGDADKLYKKVRRSRKHLRRWENIGALVVDEISMLDAELLDKLDFIARKIRKNHQPFGGIQLIFCGDFFQLPPVSKDPNRPTKFAFESKAWKEGVKMTIMLQKVFRQRGDVKFIDMLNRMRLGNIDDETEREFKKLSRPLPDDEIIPAELYSTRMEVERANNSRLSKLPGQVHIFNAIDGGALEDEELKERLLQNFLAPKELHLKVGAQVMMVKNLDATLVNGSLGKVIEFMDPETYFCYEALTNDPSMPPEKLETWAENPSKLKAAMEREQSDGEESAVASRKSSVKEGFAKSDIGEPVSPLDSSVFDFMKRVKTDDEVVLENIKRKEQLMQTIHQNSAGKRRLPLVRFKASDMSTRMVLVEPEDWAIEDENEKPLVSRVQLPLMLAWSLSIHKSQGQTLPKVKVDLRRVFEKGQAYVALSRAVSREGLQVLNFDRTRIKAHQKVIDFYLTLSSAESAYKQLEADEQVKKRKLDYAPGPKYKAKSKSKSNSPAPISATTQSNNGIAAMLQRHSRKRFQLKKESNSNQVHSLVSDEPRGQDTEDHILE
notes: purified His6-tagged Pif1, purification as in Boule et al. 2005; monomer
For B1, the Km was 110 ± 17 µM.

The values above are taken from article PMC3999857, “Periodic DNA patrolling underlies diverse functions of Pif1 on R-loops and G-rich DNA” (eLife, 2014).
